{
  "source": "patent US20030054360",
  "key": {"UGT 1A10": {"molecular_target": "T1, UGT 1A10 (UniProt Q9HAW8)", "T1 sequence": "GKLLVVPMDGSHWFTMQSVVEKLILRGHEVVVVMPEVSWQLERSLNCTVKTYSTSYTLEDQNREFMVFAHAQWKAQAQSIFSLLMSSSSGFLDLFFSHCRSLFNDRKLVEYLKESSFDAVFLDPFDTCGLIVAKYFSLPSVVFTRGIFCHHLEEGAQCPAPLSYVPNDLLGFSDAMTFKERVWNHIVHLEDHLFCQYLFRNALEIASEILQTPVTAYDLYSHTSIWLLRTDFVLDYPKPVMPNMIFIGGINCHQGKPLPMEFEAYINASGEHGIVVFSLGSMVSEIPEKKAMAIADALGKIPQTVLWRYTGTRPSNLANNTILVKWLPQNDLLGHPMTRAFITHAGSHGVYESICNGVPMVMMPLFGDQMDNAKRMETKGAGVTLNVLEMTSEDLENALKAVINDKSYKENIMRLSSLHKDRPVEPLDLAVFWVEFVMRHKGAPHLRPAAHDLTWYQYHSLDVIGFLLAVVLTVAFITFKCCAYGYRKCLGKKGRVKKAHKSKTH", "assay": "filter", "details": "5-BrdU replaces T; apparent photocrosslink KD; plateau 72%"}, "Interleukin-4": {"molecular_target": "T2, Interleukin-4 (UniProt P05112)", "T2 sequence": "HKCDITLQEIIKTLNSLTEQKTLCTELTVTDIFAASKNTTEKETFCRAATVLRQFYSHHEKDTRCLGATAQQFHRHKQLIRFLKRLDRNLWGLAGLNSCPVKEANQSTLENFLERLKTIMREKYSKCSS", "details": "5-BrdU replaces T; photocrosslinking rate at 25 nM target; KD printed as ??"}, "UGT 1A3": {"molecular_target": "T3, UGT 1A3 (UniProt P35503)", "T3 sequence": "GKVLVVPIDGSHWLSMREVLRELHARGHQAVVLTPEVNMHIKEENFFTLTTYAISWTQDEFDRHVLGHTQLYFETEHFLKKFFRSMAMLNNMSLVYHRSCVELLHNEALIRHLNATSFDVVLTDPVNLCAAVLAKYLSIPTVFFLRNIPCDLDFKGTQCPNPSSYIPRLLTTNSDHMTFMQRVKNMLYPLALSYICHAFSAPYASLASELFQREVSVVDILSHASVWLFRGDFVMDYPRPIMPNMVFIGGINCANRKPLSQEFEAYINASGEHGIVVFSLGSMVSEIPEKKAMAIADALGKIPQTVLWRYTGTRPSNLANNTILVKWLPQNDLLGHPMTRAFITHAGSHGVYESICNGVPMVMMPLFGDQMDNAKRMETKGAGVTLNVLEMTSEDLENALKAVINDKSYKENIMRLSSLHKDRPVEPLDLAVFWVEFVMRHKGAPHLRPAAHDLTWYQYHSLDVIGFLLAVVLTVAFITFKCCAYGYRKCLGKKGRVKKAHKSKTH", "assay": "filter", "details": "5-BrdU replaces T; apparent photocrosslink KD; plateau 70%"}},
  "data": [
    {"sequence": "ATATATATGGGAGGACGATGCGGCACCACTTCTTTACCTCACTCTTTCTGCAGCAGACGACGAGCGGGAAAAAAAA [UGT 1A10 pool 140 clone 45]", "values": [
      {"measurement": "Kd", "setting": "UGT 1A10", "result": 2.1, "unit": "nM"}
    ]},
    {"sequence": "ATATATATGGGAGGACGATGCGGGCACAGGTTCTATCAACGTTGTCCTGAGTAATTGACCTGCAGACGACGAGCGGGAAAAAAAA [IL-4 pool 012 clone 63]", "values": [
      {"measurement": "photocrosslinking rate", "setting": "Interleukin-4", "result": 0.71, "unit": "J-1 cm2"}
    ]},
    {"sequence": "ATATATATGGGAGGACGATGCGGGCCGACTTTGTCACCGAGTGCATCCGAGGTCAGACGACGAGCGGGAAAAAAAA [UGT 1A3 pool 141 clone 53]", "values": [
      {"measurement": "Kd", "setting": "UGT 1A3", "result": 3.9, "unit": "nM"}
    ]}
  ]
}
